Results as given in the DeepSol protein solubility set.

assay: soluble on expression in E. coli; label from the status in PepcDB or PDB records

| Sequence | soluble on expression in E. coli |
| --- | --- |
| MGSDKIHHHHHHMFKTAVGHSNDPDSLSAIEEVLQQCVSSLGGDIPKAGILFSAIDFEHALILQQIHQFFPGIELIGGTTDGEISSVLEFQQDSITLMLFCSDEVEINAGVGRKVSVDPIAVTKQAVEQAKAKTTETPRLCLTHPESLTISGVSILHGLKLALGQNVPIFGGLAGDQSRYQNTYQFFQTEVLSDSVPILLFSGTILFSHGVASGWHPIGQISQVTKVDKNILYEIDGKPALDFYHHYLGLLPPSMEYPLAVFDQNRDNFYIRAPIAYNQDSGSITFFADIPDRAVIQIAEACYEDILAASKASFMNALNNYPGAEPSAVLFFSCVARRQILGTRAKEEYQNTKLCLTYHLPGCGFYSYGEIAPIDGMSQTQFHNETFVTLILGTR | not soluble |
| MTKPVLQDGETVVCQGTHAAIASELQAIAPEVAQSLAEFFAVLADPNRLRLLSLLARSELCVGDLAQAIGVSESAVSHQLRSLRNLRLVSYRKQGRHVYYQLQDHHIVALYQNALDHLQECR | soluble |
| KGDWAWQAGFSLSGVKNEITDMKGVEDIKDNTINREGEAIGSYYGLKAIGIYRTQADLDRVNANGQKILQNNQEPQLGDIMYEDIDNNGNINDADRTIIGNPFPKMQYSFNLGFSYKDFDVNTFWQGIAGVYRYNWDETTISNGGNKTSRWLDRWSESNPNGSMPRLGGTINNNYSSFWLTKGDYLRLKNLEIGYTFRQREFLTKLGVQSIRLYLAGTNLLTFTSLDDYDPEKLSTDSRNDVHPNTRTYSFGVNVKF | not soluble |
| GPGSMANDYLFTSESVSEGHPDKVADQISDAILDAILAQDKYSRVAAETLCNTGLVVLAGEITTTANIDYIQIARDTIKRIGYDNTDYGIDYRGCAVLVAYDKQSPDIAQGVDRAHDNNLDQGAGDQGLMFGYACDETPELMPLPIHLSHRLVERQANLRRDGRLPWLRPDAKSQVTVRYVDGKPHSIDTVVLSTQHAPEIDLPALREAVIEEVIKPTLPADLIKGDIKFLVNPTGRFVIGGPQGDCGLTGRKIIVDTYGGAAPHGGGAFSGKDPSKVDRSAAYAGRYVAKNIVAAGLASRALIQVSYAIGVAEPTSVMVNTFGTGRVSDETITKLVREHFDLRPKGIIQMLDLLRPIYEKTAAYGHFGREEPEFSWEAADKALALAEAAGVEPAVQVA | soluble |
| MSLDLKLGGQVILVVGGAGTIGSEVVKLLTEEGATAVAASRSTPLSIDASDEASVRAGIDQVIAEHGRLDGLVVSSAPAAQTLSAETADDPDTVLAAIEGKAITFMKAATVALEKMREAGHGRIVALSGMNSYKTLSTTASARNAALNVVVKNLADRHAGTGITVNAISPGFVVAEPDAEVNRANGDTTVEEVAEAIAFLLSPRTASISGEIISVGHKAKGEGHHHHHH | not soluble |
| MGSDKIHHHHHHMLKRIATSLLDIAYDEQGNADGWPVVLLHGFPYDIHAYDAVTPRLTSQGARVITPYLRGYGPTRFLAPTTLRSGQQAALGADLLALLDALQIGQAVLGGYDWGGRAACIVAALYPSRARGLVSVNGYNIQNIAAASQPADPEKEYRMWYQYYLHGERGRAGLTENRREFCRLLWSLWSPTWHFGDDTYARSAAAFDNPDFVDVVVHSYRHRFGLVDGDPQFDDIERRLSAMPPITVPAITLEGDADGVSPPGGRQANSQRFTGRHQNRVVPNAGHNLPQEAPGAFADAVLDINAWAARRSCACGD | not soluble |
| VTGAIDPNLFTDAVLQVAAAAGRDETLPMLTGIHMEIDGENVTLTATDRFRLALRRFTWSPANPEAKAKLLIPAKNLSDNARSLDSGSTEPVEIAVGTGENIGAEGLFGIHIDNRQTTTRMLDADFPNVSPLL | not soluble |
| MKKILLSAAVLLLSLGTYAQNNPTSLPTDIRIKKVVYRENDVIPVHGIPFTTTQIQFAKQERVLDIEGGDTTAWMVTYHPQLENMIFIKPTMFDSKTNMTVITNQRAYYFSLTSAKKLEQEPGKKTYALKFEYPQPQPVNTKNTTPNKTVHPKVVNTAYRFSGSPQLVPRHVFDDGKFTYFELSAQGSVPAIFAVDDQSGKESTVNTRREGKFIVVQRLAPQFTLRQGGLTASVFNTPEINRIRANRRPK | not soluble |
| MEKVKKIVLIGASGFVGSALLNEALNRGFEVTAVVRHPEKIKIENEHLKVKKADVSSLDEVCEVCKGADAVISAFNPGWNNPDIYDETIKVYLTIIDGVKKAGVNRFLMVGGAGSLFIAPGLRLMDSGEVPENILPGVKALGEFYLNFLMKEKEIDWVFFSPAADMRPGVRTGRYRLGKDDMIVDIVGNSHISVEDYAAAMIDELEHPKHHQERFTIGYLEHHHHHH | soluble |
| MNNWKLILPLMMSGSLIACTSTQTTTEPVEPETPKVEQPVTVEPEVKPEVEPKPEVKPKPETKPEKKPEPKPEKPVKVQKTPDGMLILGSEEWVYVPAIDQTFKARVDTGATTSSISATEIVPFERDGKDWVQFKIDINGKTSKEFKVPVERWAKVKQSSSDEVDKRAVVVAYIQVGDYKEKTEFTLADRDHMKFPILLGRSFFRDIAVVDVSKKYIQDKPTKSTKK | not soluble |
| MNQRLVYVVSDSGGETAELVVKAAASQFHASPIQVKRVPYVEDKTTLAEVVALAKMNRAIIAFTLVVPEMREFLLAEAAREGVVAYDIIGPLIEKMSHLFQLTPRYEPGQVRVLDEDYFKKIEAIEFAVKYDDGRDPRGILRADIVLIGVSRTSKTPLSQYLAHKRLKVANVPIVPEVEPPEQLFRVGPGKCFGLKISPDKLLSIRRERLKSLGLNDQAIYANMDRIKEELAYFDEVVKKIGCDVIDVTNKAVEETASIIMKKLKR | not soluble |
| MSTRSARIVVVSSRAAAGVYTDDCGPIIAGWLEQHGFSSVQPQVVADGNPVGEALHDAVNAGVDVIITSGGTGISPTDTTPEHTVAVLDYVIPGLADAIRRSGLPKVPTSVLSRGVCGVAGRTLIINLPGSPGGVRDGLGVLADVLDHALEQIAGGDHPR | soluble |
| GKVFERCELARTLKRLGMDGYRGISLANWMCLAKWESGYNTRATNYNAGDRSTDYGIFQINSRYWCNDGKTPGAVNACHLSCSALLQDNIADAVACAKRVVRDPQGIRAWVAWRNRCQNRDVRQYVQGCGV | soluble |
| MSLAERLNNDFQFIEVGRKDPKKKLLRQRKKEFVEIYEPFKPQQSVEQAHRCLGCGNPYCEWKCPVHNFIPNWLKLVSEGNILAAAELSHQTNTLPEVCGRVCPQDRLCEGACTLNDGFGAVTIGSVEKYITDTAFAMGWRPDMSKVKPTGKRVAIIGAGPAGLGCADVLVRAGVTPVVFDKNPEIGGLLTFGIPEFKLEKTVLSNRREVFTGMGIEFRLNTEVGKDVTMEQLLAEYDAVFMGMGTYTYMKGGFPGEDLPGVHDALDFLIANVNRNLGFEKSPEDFVDMQGKKVVVLGGGDTAMDCNRTSIRQGAKAVTCAYRRDEANMPGSRKEVKNAKEEGVKFLYNRQPIAIVGEDKVEGVKVVETRLGEPDARGRRSPEPIPGSEEILPADAVVIAFGFRPSPAPWFEQHGIQLDSQGRVVAPEKGKFKHQTSNPKVFAGGDMVRGSDLVVTAIFEGRTAAEGILDYLEVEGHHHHHH | soluble |
| MTHYKDDSYALHTDLYQINMAYTYWKDGIHNRRSVFDLYFRKLPFENGYAVFAGLEKIVEYIENFSFTESDIAYLAELQFEEEFLHYLQNMKFTGTIRSMQEGEVVFNNEPLLRVDAPLGEAQIIETALLNIVNYQTLIATKAARMKHAASNDELLEFGTRRAHEFDAALWGTRAAFIGGFSSTSNVRAGKRFGIPVAGTHAHSFVQAYRDEYVAFKKYAETHKKCVFLVDTYDTLKSGVPNAIRVAKEFGDRIDFYGIRLDSGDMAYLSKKARKLLDEAGFTNTKIIASSDLDEYTIMHLKSQGAKIDVWGVGTKLITSFEQPALGAVYKLVAIEDTDGKLNDTIKISSNPEKITTPGLKRIYRIINRVNDHAEGDYIALDSEEPGKEERLKMFHPVHTYISKFVTNFEARELHKDIFVNGERTYELPSILDIQKYNEQSLSLFWEEYMRTLNPEEYPVDLSQECWDHKMNYIQTVREQVEKNIQK | not soluble |
| MNNKTEQGNDAVSGQPSIKGQPVLGKDDAPVTVVEFGDYKCPSCKVFNSDIFPKIQKDFIDKGDVKFSFVNVMFHGKGSRLAALASEEVWKEDPDSFWDFHEKLFEKQPDTEQEWVTPGLLGDLAKSTTKIKPETLKENLDKETFASQVEKDSDLNQKMNIQATPTIYVNDKVIKNFADYDEIKETIEKELKGKLEHHHHHH | soluble |
| STSAAQQGRNQNGEYNILDSIIAETRLSPDDEAYDIAKRGVSAFIEELLKPQNDGEPVKKAMVDRMIAEIDAKLSTQMDEILHHPDFQALESAWRGLQLLVDRTNFRENIKIEILSVSKQDLLDDFEDSPEVMQSGLYKHIYTAEYGQFGGQPVGAIIANYYMSPSSPDVKLMQYVSSVACMAHAPFVAAAGPKFFGLESFTGLPDLKDLKDHFEGPQFAKWQSFRQSEDSRYVALTVPRFLLRTPYDPEENPVKSFAYKETVANSHEHYLWGNTAYAFGTKLTDSFAKYRWCPNIIGPQSGGAVEDLPLHHFESMGEIETKIPTEVLVSDRREYELAEEGFISLTMRKGSDNAAFFSASSVQKPKFFGISAEGKAAELNYKLGTQLPYMMIVNRLAHYLKVLQREQLGSWKERTDLELELNKWIRQYVADQENPSAEVRGRRPLRAAQIIVSDVEGEPGWYRVSLNVRPHFKYMGADFTLSLVG | not soluble |
| MAHHHHHHSSGLEVLFQGPEPKKYAVTDDYQLSKQVLGLGVNGKVLECFHRRTGQKCALKLLYDSPKARQEVDHHWQASGGPHIVCILDVYENMHHGKRCLLIIMECMEGGELFSRIQERGDQAFTEREAAEIMRDIGTAIQFLHSHNIAHRDVKPENLLYTSKEKDAVLKLTDFGFAKETTQNALQTPCYTPYYVAPEVLGPEKYDKSCDMWSLGVIMYILLCGFPPFYSNTGQAISPGMKRRIRLGQYGFPNPEWSEVSEDAKQLIRLLLKTDPTERLTITQFMNHPWINQSMVVPQTPLHTARVLQEDKDHWDEVKEEMTSALATMRVDYDQV | soluble |
| MNIYTDKKVVAVGGGHGLGRMLAALKDFGSNATGIVATTDNGGSTGRIRHCQGGIAWGDTRNCINQLITEPSISSMMFEYRFKGTGELDGHNLGNLMLTALDNLSVRPLDAINLIRNMLKVDVNILPMSEHPSDLSALSVNGQWVTGETNVDEMETDLRRLDLSPEVPATKEAVTALAEADAIILGPGSFLTSIMPPLLLPELGKAIAANRKAKVIFVANLSPEYGPAGRMSMAQKLEWCERACQGRRIDVVLAEETDQKVLEQWNVVTEPLASTNRDWRHDRDKLKAAIENQLLTKLEHHHHHH | soluble |
| MSQKTDAPLESYEVNGATIAVLPEEIDGKICSKIIEKDCVFYVNMKPLQIVDRSCRFFGSSYAGRKAGTYEVTKISHKPPIMVDPSNQIFLFPTLSSTRPQCGWISHVHVKEFKATEFDDTEVTFSNGKTMELPISYNSFENQVYRTAWLRTKFQDRIDHRVPKRQEFMLYPKEERTKMIYDFILRELGERYLEHHHHHH | not soluble |
| GPGSMTSTVTAVNQTQSLAAIRNFVRASVSCITYARGLCSDNAYEQRPFLGLPLRQLIPSTTESITISEWIEKGAFDALNRNYLKEMSLCVYDAACHELLESYCFGFNYTGDGERAQMTLNASQTIADGSKTTAVSQSSGGAVGIPAYRKRRCTKQEVQHLLTSILERLMDVVESLPPLLSERVLTMRLTYYDAVTPASYEPPCFAPASEHMARLYQAEVKHHVNIGSMDTSHHLFSVAIRHPLLQQIHRQMTGRTTSAVATKT | not soluble |
